Numbered stars: 1 amine (or outer) side, 2 acyl side, 3 side chain; on linkers, the order of the positions; unused ones are H or OH. Bridge positions count the residues as written; N and C are the ends. Side chains are listed from the residue outwards. Ends that are not written are not given here. * marks the point of attachment. C20 diacid = O=C(O)CCCCCCCCCCCCCCCCCCC(=O)*; γGlu = O=C(O)[C@H](CCC(=O)[*:2])N[*:1]; AEEA = NCCOCCOCC(=O)O
B1: N^ε1-[2-[2-[2-[[(4S)-4-carboxy-4-(19-carboxynonadecanoylamino)butanoyl]amino]ethoxy]ethoxy]acetyl]-[Ala14,Arg17,Pro21,Pro27,Pro31]-h-amylin (peptide)
peptide: K([AEEA-γGlu-C20 diacid])CNTATCATQRLAAFLRHSSPNFGAIPSSTPVGSNTY-NH2
modifications: disulfide 2-7; N-terminus assumed
SMILES: CC[C@H](C)[C@H](NC(=O)[C@H](C)NC(=O)CNC(=O)[C@H](Cc1ccccc1)NC(=O)[C@H](CC(N)=O)NC(=O)[C@@H]1CCCN1C(=O)[C@H](CO)NC(=O)[C@H](CO)NC(=O)[C@H](Cc1c[nH]cn1)NC(=O)[C@H](CCCNC(=N)N)NC(=O)[C@H](CC(C)C)NC(=O)[C@H](Cc1ccccc1)NC(=O)[C@H](C)NC(=O)[C@H](C)NC(=O)[C@H](CC(C)C)NC(=O)[C@H](CCCNC(=N)N)NC(=O)[C@H](CCC(N)=O)NC(=O)[C@@H](NC(=O)[C@H](C)NC(=O)[C@@H]1CSSC[C@H](NC(=O)[C@@H](N)CCCCNC(=O)COCCOCCNC(=O)CC[C@H](NC(=O)CCCCCCCCCCCCCCCCCCC(=O)O)C(=O)O)C(=O)N[C@@H](CC(N)=O)C(=O)N[C@@H]([C@@H](C)O)C(=O)N[C@@H](C)C(=O)N[C@@H]([C@@H](C)O)C(=O)N1)[C@@H](C)O)C(=O)N1CCC[C@H]1C(=O)N[C@@H](CO)C(=O)N[C@@H](CO)C(=O)N[C@H](C(=O)N1CCC[C@H]1C(=O)N[C@H](C(=O)NCC(=O)N[C@@H](CO)C(=O)N[C@@H](CC(N)=O)C(=O)N[C@H](C(=O)N[C@@H](Cc1ccc(O)cc1)C(N)=O)[C@@H](C)O)C(C)C)[C@@H](C)O
notes: also called compound 72
B2: N^ε1-[2-[2-[2-[[(4S)-4-carboxy-4-(19-carboxynonadecanoylamino)butanoyl]amino]ethoxy]ethoxy]acetyl]-[Arg17,Pro21,Pro27,His34]-h-amylin (peptide)
peptide: K([AEEA-γGlu-C20 diacid])CNTATCATQRLANFLRHSSPNFGAIPSSTNVGHNTY-NH2
modifications: disulfide 2-7; N-terminus assumed
SMILES: CC[C@H](C)[C@H](NC(=O)[C@H](C)NC(=O)CNC(=O)[C@H](Cc1ccccc1)NC(=O)[C@H](CC(N)=O)NC(=O)[C@@H]1CCCN1C(=O)[C@H](CO)NC(=O)[C@H](CO)NC(=O)[C@H](Cc1c[nH]cn1)NC(=O)[C@H](CCCNC(=N)N)NC(=O)[C@H](CC(C)C)NC(=O)[C@H](Cc1ccccc1)NC(=O)[C@H](CC(N)=O)NC(=O)[C@H](C)NC(=O)[C@H](CC(C)C)NC(=O)[C@H](CCCNC(=N)N)NC(=O)[C@H](CCC(N)=O)NC(=O)[C@@H](NC(=O)[C@H](C)NC(=O)[C@@H]1CSSC[C@H](NC(=O)[C@@H](N)CCCCNC(=O)COCCOCCNC(=O)CC[C@H](NC(=O)CCCCCCCCCCCCCCCCCCC(=O)O)C(=O)O)C(=O)N[C@@H](CC(N)=O)C(=O)N[C@@H]([C@@H](C)O)C(=O)N[C@@H](C)C(=O)N[C@@H]([C@@H](C)O)C(=O)N1)[C@@H](C)O)C(=O)N1CCC[C@H]1C(=O)N[C@@H](CO)C(=O)N[C@@H](CO)C(=O)N[C@H](C(=O)N[C@@H](CC(N)=O)C(=O)N[C@H](C(=O)NCC(=O)N[C@@H](Cc1c[nH]cn1)C(=O)N[C@@H](CC(N)=O)C(=O)N[C@H](C(=O)N[C@@H](Cc1ccc(O)cc1)C(N)=O)[C@@H](C)O)C(C)C)[C@@H](C)O
notes: also called compound 76
B3: N^ε1-[2-[2-[2-[[(4S)-4-carboxy-4-(19-carboxynonadecanoylamino)butanoyl]amino]ethoxy]ethoxy]acetyl]-[Arg14,Arg17,Pro21,Pro27,Pro31]-h-amylin (peptide)
peptide: K([AEEA-γGlu-C20 diacid])CNTATCATQRLARFLRHSSPNFGAIPSSTPVGSNTY-NH2
modifications: disulfide 2-7; N-terminus assumed
SMILES: CC[C@H](C)[C@H](NC(=O)[C@H](C)NC(=O)CNC(=O)[C@H](Cc1ccccc1)NC(=O)[C@H](CC(N)=O)NC(=O)[C@@H]1CCCN1C(=O)[C@H](CO)NC(=O)[C@H](CO)NC(=O)[C@H](Cc1c[nH]cn1)NC(=O)[C@H](CCCNC(=N)N)NC(=O)[C@H](CC(C)C)NC(=O)[C@H](Cc1ccccc1)NC(=O)[C@H](CCCNC(=N)N)NC(=O)[C@H](C)NC(=O)[C@H](CC(C)C)NC(=O)[C@H](CCCNC(=N)N)NC(=O)[C@H](CCC(N)=O)NC(=O)[C@@H](NC(=O)[C@H](C)NC(=O)[C@@H]1CSSC[C@H](NC(=O)[C@@H](N)CCCCNC(=O)COCCOCCNC(=O)CC[C@H](NC(=O)CCCCCCCCCCCCCCCCCCC(=O)O)C(=O)O)C(=O)N[C@@H](CC(N)=O)C(=O)N[C@@H]([C@@H](C)O)C(=O)N[C@@H](C)C(=O)N[C@@H]([C@@H](C)O)C(=O)N1)[C@@H](C)O)C(=O)N1CCC[C@H]1C(=O)N[C@@H](CO)C(=O)N[C@@H](CO)C(=O)N[C@H](C(=O)N1CCC[C@H]1C(=O)N[C@H](C(=O)NCC(=O)N[C@@H](CO)C(=O)N[C@@H](CC(N)=O)C(=O)N[C@H](C(=O)N[C@@H](Cc1ccc(O)cc1)C(N)=O)[C@@H](C)O)C(C)C)[C@@H](C)O
notes: also called compound 64
B4: N^ε1-[2-[2-[2-[[(4S)-4-carboxy-4-(19-carboxynonadecanoylamino)butanoyl]amino]ethoxy]ethoxy]acetyl]-[Arg14,Arg17,Pro21,Pro27]-h-amylin (peptide)
peptide: K([AEEA-γGlu-C20 diacid])CNTATCATQRLARFLRHSSPNFGAIPSSTNVGSNTY-NH2
modifications: disulfide 2-7; N-terminus assumed
SMILES: CC[C@H](C)[C@H](NC(=O)[C@H](C)NC(=O)CNC(=O)[C@H](Cc1ccccc1)NC(=O)[C@H](CC(N)=O)NC(=O)[C@@H]1CCCN1C(=O)[C@H](CO)NC(=O)[C@H](CO)NC(=O)[C@H](Cc1c[nH]cn1)NC(=O)[C@H](CCCNC(=N)N)NC(=O)[C@H](CC(C)C)NC(=O)[C@H](Cc1ccccc1)NC(=O)[C@H](CCCNC(=N)N)NC(=O)[C@H](C)NC(=O)[C@H](CC(C)C)NC(=O)[C@H](CCCNC(=N)N)NC(=O)[C@H](CCC(N)=O)NC(=O)[C@@H](NC(=O)[C@H](C)NC(=O)[C@@H]1CSSC[C@H](NC(=O)[C@@H](N)CCCCNC(=O)COCCOCCNC(=O)CC[C@H](NC(=O)CCCCCCCCCCCCCCCCCCC(=O)O)C(=O)O)C(=O)N[C@@H](CC(N)=O)C(=O)N[C@@H]([C@@H](C)O)C(=O)N[C@@H](C)C(=O)N[C@@H]([C@@H](C)O)C(=O)N1)[C@@H](C)O)C(=O)N1CCC[C@H]1C(=O)N[C@@H](CO)C(=O)N[C@@H](CO)C(=O)N[C@H](C(=O)N[C@@H](CC(N)=O)C(=O)N[C@H](C(=O)NCC(=O)N[C@@H](CO)C(=O)N[C@@H](CC(N)=O)C(=O)N[C@H](C(=O)N[C@@H](Cc1ccc(O)cc1)C(N)=O)[C@@H](C)O)C(C)C)[C@@H](C)O
notes: also called compound 82
B5: N^ε1-[2-[2-[2-[[(4S)-4-carboxy-4-(19-carboxynonadecanoylamino)butanoyl]amino]ethoxy]ethoxy]acetyl]-[Arg17,Pro21,Pro27,Arg34]-h-amylin (peptide)
peptide: K([AEEA-γGlu-C20 diacid])CNTATCATQRLANFLRHSSPNFGAIPSSTNVGRNTY-NH2
modifications: disulfide 2-7; N-terminus assumed
SMILES: CC[C@H](C)[C@H](NC(=O)[C@H](C)NC(=O)CNC(=O)[C@H](Cc1ccccc1)NC(=O)[C@H](CC(N)=O)NC(=O)[C@@H]1CCCN1C(=O)[C@H](CO)NC(=O)[C@H](CO)NC(=O)[C@H](Cc1c[nH]cn1)NC(=O)[C@H](CCCNC(=N)N)NC(=O)[C@H](CC(C)C)NC(=O)[C@H](Cc1ccccc1)NC(=O)[C@H](CC(N)=O)NC(=O)[C@H](C)NC(=O)[C@H](CC(C)C)NC(=O)[C@H](CCCNC(=N)N)NC(=O)[C@H](CCC(N)=O)NC(=O)[C@@H](NC(=O)[C@H](C)NC(=O)[C@@H]1CSSC[C@H](NC(=O)[C@@H](N)CCCCNC(=O)COCCOCCNC(=O)CC[C@H](NC(=O)CCCCCCCCCCCCCCCCCCC(=O)O)C(=O)O)C(=O)N[C@@H](CC(N)=O)C(=O)N[C@@H]([C@@H](C)O)C(=O)N[C@@H](C)C(=O)N[C@@H]([C@@H](C)O)C(=O)N1)[C@@H](C)O)C(=O)N1CCC[C@H]1C(=O)N[C@@H](CO)C(=O)N[C@@H](CO)C(=O)N[C@H](C(=O)N[C@@H](CC(N)=O)C(=O)N[C@H](C(=O)NCC(=O)N[C@@H](CCCNC(=N)N)C(=O)N[C@@H](CC(N)=O)C(=O)N[C@H](C(=O)N[C@@H](Cc1ccc(O)cc1)C(N)=O)[C@@H](C)O)C(C)C)[C@@H](C)O
notes: also called compound 78

Target: T1, human calcitonin receptor (human, UniProt P30988 25-474)
T1 sequence (looked up): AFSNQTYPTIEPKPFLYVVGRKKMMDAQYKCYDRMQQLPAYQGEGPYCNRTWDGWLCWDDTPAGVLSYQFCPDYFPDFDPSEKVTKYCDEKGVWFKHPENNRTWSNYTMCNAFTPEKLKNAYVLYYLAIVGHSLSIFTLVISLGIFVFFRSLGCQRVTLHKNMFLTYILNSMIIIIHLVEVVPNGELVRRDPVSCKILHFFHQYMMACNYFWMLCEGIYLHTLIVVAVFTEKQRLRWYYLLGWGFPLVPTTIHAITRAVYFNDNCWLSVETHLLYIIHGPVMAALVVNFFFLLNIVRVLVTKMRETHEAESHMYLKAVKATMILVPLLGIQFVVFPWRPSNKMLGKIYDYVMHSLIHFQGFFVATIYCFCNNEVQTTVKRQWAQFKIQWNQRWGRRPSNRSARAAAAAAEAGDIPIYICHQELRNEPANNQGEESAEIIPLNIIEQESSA
Assay: cell-based or functional assay

| Binder | hCTR funct. EC50 |
| --- | --- |
| B1 | 4.76 nM |
| B2 | 7.37 nM |
| B3 | 22.9 nM |
| B4 | 12.7 nM |
| B5 | 8.17 nM |

Target: T2, human amylin receptor (amylin 3(a) receptor: human calcitonin receptor co-expressed with RAMP-3) (human, UniProt P30988 25-474; O60896 24-148, limits assumed)
T2 sequence (looked up) 1: T1 sequence (looked up)
T2 sequence (looked up) 2: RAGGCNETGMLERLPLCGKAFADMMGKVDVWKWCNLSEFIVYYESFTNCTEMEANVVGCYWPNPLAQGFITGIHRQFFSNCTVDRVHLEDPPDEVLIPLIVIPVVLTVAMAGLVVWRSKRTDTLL
Assay: cell-based or functional assay

| Binder | hAmylin-R funct. EC50 | Ratio hCT/hAmylin funct. |
| --- | --- | --- |
| B1 | 0.106 nM |  |
| B2 | 0.297 nM |  |
| B3 | 0.378 nM |  |
| B4 | 0.215 nM | 59.2 |
| B5 | 0.316 nM |  |

— US20140087995A1 (published 2014)
